Source: patent US20240150440A1 (LUMEN BIOSCIENCE, published 2024)

B1: PP881 MBP-R5a-F2-H6 (VHH)
VHH: QVQLVESGGGLVQPGGSLRLSCAASGSISSIEAMSWFRQAPGKQREGVATMASGGDTSYADSVKGRFTISRDNAKNTVYLQMNSLKPEDTAVYYCAAQTYRPDTWGRYTFWGQGTQVTVSS
notes: Form: Monomer
B2: PP885 MBP-R5b-C5-H6 (VHH)
VHH: QVQLVESGGGLVQPGGSLRLSCAASGSPFKTQTVHWFRQAPGKGREWVASITSGSGTQYMDSVKGRFTISRDNAKNTVYLQMNSLKPEDTAVYYCAAANDGYGVDWGQGTQVTVSS
notes: Form: Monomer
B3: PP1141 MBP-4B0F-PAPA-R5d-D4-H6 (VHH)
VHH: QVQLVESGGGLVQPGGSLRLSCAASGSDFTINAMHWFRQAPGKQREFVATITSTSSTAYRDSVKGRFTISRDNAKNTVYLQMNSLKPEDTAVYYCAAFAVRDADTAGWTARDYWGQGTQVTVSS
notes: Form: Heptamer
B4: PP1114 MBP-5HVZ-PAPA-RN-30-H6 (VHH)
VHH: QVQLVESGGGLVQPGGSLRLSCAASGIPASYLNMHWFRQAPGKQREWVAGAGGTNSNYYQDSVKGRFTISRDNAKNTVYLQMNSLKPEDTAVYYCAALDGAESYDYVYPVWGQGTQVTVSS
notes: Form: Dimer
B5: PP887 MBP-S1b-E7-H6 (VHH)
VHH: QVQLVESGGGLVQPGGSLRLSCAASGGEFSDNGLHWFRQAPGKQREFVATASSDGSTQYRDSVKGRFTISRDNAKNTVYLQMNSLKPEDTAVYYCTALLMSSAGEYDVWGQGTQVTVSS
notes: Form: Monomer
B6: PP911 MBP-5HVZ-S2b-F7-H6 (VHH)
VHH: QVQLVESGGGLVQPGGSLRLSCAASGSTLSNNAMHWFRQAPGKAREFVAAIGSSDSTDYKDSVKGRFTISRDNAKNTVYLQMNSLKPEDTAVYYCTALLDSGPGEYNYWGQGTQVTVSS
notes: Form: Dimer
B7: PP1177 MPB-scTRP-PAPA-R2a-F3-H6 (VHH)
VHH: QVQLVESGGGLVQPGGSLRLSCAASGSITSINWMHWFRQAPGKDREGVASISQTGRGSYADSVKGRFTISRDNAKNTVYLQMNSLKPEDTAVYYCAAASRTGTPYNYWGQGTQVTVSS
notes: Form: Trimer
B8: PP1108 MBP-5HVZ-PAPA-RN-23-H6 (VHH)
VHH: QVQLVESGGGLVQPGGSLRLSCAASGGEKSISAAHWYRQAPGKEREFVAAITAASTTSYADSVKGRFTISRDNAKNTVYLQMNSLKPEDTAVYYCTAVLYDSYDYWGQGTQVTVSS
notes: Form: Dimer
B9: PP880 MBP-R5a-B5-H6 (VHH)
VHH: QVQLVESGGGLVQPGGSLRLSCAASGDDFIENAISWYRQAPGKGREWVAAVTLGGHSNYADSVKGRFTISRDNAKNTVYLQMNSLKPEDTAVYYCNYPVGIPAVAIDGRRSYGYWGQGTQVTVSS
notes: Form: Monomer
B10: PP901 MBP-5HVZ-R1e-B2-H6 (VHH)
VHH: QVQLVESGGGLVQPGGSLRLSCAASGQITAENYMHWYRQAPGKQREWVAAITTGGSTLYADSVKGRFTISRDNAKNTVYLQMNSLKPEDTAVYYCNADRSYFPDYWGQGTQVTVSS
notes: Form: Dimer
B11: PP1115 MBP-5HVZ-PAPA-RN-31-H6 (VHH)
VHH: QVQLVESGGGLVQPGGSLRLSCAASGSTGSDYAMHWFRQAPGKDREWVAGISSYGSDSYGDSVKGRFTISRDNAKNTVYLQMNSLKPEDTAVYYCAALQASAGAGYYYDYWGQGTQVTVSS
notes: Form: Dimer
B12: PP922 MBP-R5a-F5-H6 (VHH)
VHH: QVQLVESGGGLVQPGGSLRLSCAASGYHASILAMHWVRQAPGKEREWVASMTWSDMTQYSDSVKGRFTISRDNAKNTVYLQMNSLKPEDTAVYYCAATYVTRDRPWTHWGQGTQVTVSS
notes: Form: Monomer
B13: PP883 MBP-R1e-D4-H6 (VHH)
VHH: QVQLVESGGGLVQPGGSLRLSCAASGSIREINAMHWVRQAPGKGRELVASIDSGSLDYYADSVKGRFTISRDNAKNTVYLQMNSLKPEDTAVYYCAASRSGDYRYWGQGTQVTVSS
notes: Form: Monomer
B14: PP902 MBP-5HVZ-R1e-D4-H6 (VHH)
VHH: B13 VHH
notes: Form: Dimer
B15: PP823 MBP-R5B-C3-H6 (VHH)
VHH: QVQLVESGGGLVQPGGSLRLSCAASGGISVANVMHWFRQAPGKEREGVAGLTSEGSRYYADSVKGRFTISRDNAKNTVYLQMNSLKPEDTAVYYCAAEPTGNTHEFEYWGQGTQVTVSS
B16: PP888 MBP-S1b-E11-H6 (VHH)
VHH: QVQLVESGGGLVQPGGSLRLSCAASGSYASIASMHWFRQAPGKEREFVAGVTSGGSTNYGDSVKGRFTISRDNAKNTVYLQMNSLKPEDTAVYYCNALAGANYESQWEEYNYWGQGTQVTVSS
notes: Form: Monomer
B17: PP907 MBP-5HVZ-S1b-E11-H6 (VHH)
VHH: B16 VHH
notes: Form: Dimer
B18: PP910 MBP-5HVZ-S2b-C10-H6 (VHH)
VHH: QVQLVESGGGLVQPGGSLRLSCAASGSAFSLNYMAWFRQAPGKQREGVAIIGSGGSSDYADSVKGRFTISRDNAKNTVYLQMNSLKPEDTAVYYCAAQPNGSPDDFDYWGQGTQVTVSS
notes: Form: Dimer
B19: PP884 MBP-R1i-A11-H6 (VHH)
VHH: QVQLVESGGGLVQPGGSLRLSCAASGSILQINAIHWFRQAPGKQREEVAAITSGGSTGYADSVKGRFTISRDNAKNTVYLQMNSLKPEDTAVYYCAATSTRGGLDSDYWGQGTQVTVSS
notes: Form: Monomer
B20: PP928 MBP-5HVZ-R1i-E7-H6 (VHH)
VHH: QVQLVESGGGLVQPGGSLRLSCAASGTEYDISAAHWYRQAPGKQREWVAGVTSDNSTFYADSVKGRFTISRDNAKNTVYLQMNSLKPEDTAVYYCTATVKTSQYRYWGQGTQVTVSS
B21: PP806 MBP-R2B-E6-H6 (VHH)
VHH: QVQLVESGGGLVQPGGSLRLSCAASGGVTRGNAMAWYRQAPGKQREIVAAIDNGGSHAYGDSVKGRFTISRDNAKNTVYLQMNSLKPEDTAVYYCAVFPDHDSEQASIDRVYWGQGTQVTVSS
notes: Form: Monomer
B22: PP886 MBP-S1a-C4-H6 (VHH)
VHH: QVQLVESGGGLVQPGGSLRLSCAASGSRDSINTAHWYRQAPGKAREWVASLDNSTTGSYADSVKGRFTISRDNAKNTVYLQMNSLKPEDTAVYYCAAVTGTPGGLGFYDYWGQGTQVTVSS
B23: PP905 MBP-5HVZ-S1a-C4-H6 (VHH)
VHH: B22 VHH
notes: Form: Dimer
B24: PP1096 MBP-5HVZ-PAPA-RN-3-H6 (VHH)
VHH: QVQLVESGGGLVQPGGSLRLSCAASGFEFTYRAVHWFRQAPGKGREWVAGVVSGGSTYYADSVKGRFTISRDNAKNTVYLQMNSLKPEDTAVYYCNAGPQAEEDTYDYWGQGTQVTVSS
B25: PP904 MBP-5HVZ-R5b-C5-H6 (VHH)
VHH: B2 VHH
notes: Form: Dimer
B26: PP913 MBP-5HVZ-S3a-C5-H6 (VHH)
VHH: QVQLVESGGGLVQPGGSLRLSCAASGSIKNTNAMHWFRQAPGKDREWVAGITSGGNSNYGDSVKGRFTISRDNAKNTVYLQMNSLKPEDTAVYYCAAFGYRYDQDYTYDYWGQGTQVTVSS
notes: Form: Dimer
B27: PP916 MBP-5HVZ-S3b-A8-H6 (VHH)
VHH: QVQLVESGGGLVQPGGSLRLSCAASGSIISRVKVHWFRQAPGKSREWVAGIDSGTASYYSDSVKGRFTISRDNAKNTVYLQMNSLKPEDTAVYYCAAENRGYGVDWGQGTQVTVSS
notes: Form: Dimer
B28: PP788 (VHH, not shown: large carriers; small tags and cut ends)
VHH: QVQLVESGGGLVQPGGSLRLSCAASGSIESINAIHWFRQAPGKAREEVAAITENDVDYYADSVKGRFTISRDNAKNTVYLQMNSLKPEDTAVYYCASLSSGYQYVGFRYWGQGTQVTVSS
B29: PP914 MBP-5HVZ-S3a-H1-H6 (VHH)
VHH: QVQLVESGGGLVQPGGSLRLSCAASGGIYSPYSMHWFRQAPGKAREWVAGIVGGGGTTYSDSVKGRFTISRDNAKNTVYLQMNSLKPEDTAVYYCNANYQEYDEYDYWGQGTQVTVSS
notes: Form: Dimer

Each binder was assayed against SARS-CoV-2 spike protein on pseudotyped lentivirus (Wuhan Reference Pseudovirus) (SARS-CoV-2, UniProt P0DTC2 14-1273) (assay: cell-based or functional assay).

Row | Binder | infectivity % under 10 ug/mL VHH treatment [%]
1 | B1 | 83.2
2 | B2 | 101
3 | B3 | 73.1
4 | B4 | 76.3
5 | B5 | 85.7
6 | B6 | 74.9
7 | B7 | 51.1
8 | B8 | 93.1
9 | B9 | 58
10 | B10 | 72.1
11 | B11 | 86.9
12 | B12 | 67.7
13 | B13 | 94.3
14 | B14 | 72.4
15 | B15 | 65.5
16 | B16 | 80
17 | B17 | 76.3
18 | B18 | 65.1
19 | B19 | 91.3
20 | B20 | 78.5
21 | B21 | 86.5
22 | B22 | 84.8
23 | B23 | 75.7
24 | B24 | 86.5

These binders were tested against T1, SARS-CoV-2 Beta Variant RBD (SARS-CoV-2 Beta variant) (assay: ELISA, RBD coated).
T1 construct: domain: RBD; coated on ELISA plates

Row | Binder | EC50 [µM]
25 | B25 | 0.139
26 | B26 | 0.114
27 | B4 | 0.0189
28 | B6 | 0.545
29 | B27 | 0.0663
30 | B28 | 0.0276
31 | B8 | 0.121
32 | B11 | 0.857
33 | B17 | 0.263
34 | B29 | 0.0194
35 | B24 | 0.0632

Each binder was assayed against T2, SARS-CoV-2 Alpha Variant RBD (SARS-CoV-2 Alpha variant) (assay: ELISA, RBD coated).
T2 construct: domain: RBD; coated on ELISA plates

Row | Binder | EC50 [µM]
36 | B25 | 0.013
37 | B26 | 0.00133
38 | B4 | 0.00164
39 | B6 | 0.00219
40 | B27 | 0.00204
41 | B28 | 0.00588
42 | B8 | 0.00189
43 | B11 | 0.00674
44 | B14 | 0.123
45 | B17 | 0.0037
46 | B29 | 0.00294
47 | B23 | 0.447
48 | B24 | 0.00192

What follows are binders tested against T3, SARS-CoV-2 Gamma Variant RBD (SARS-CoV-2 Gamma variant) (assay: ELISA, RBD coated).
T3 construct: domain: RBD; coated on ELISA plates

Row | Binder | EC50 [µM]
49 | B25 | 0.0347
50 | B26 | 0.0611
51 | B4 | 0.00612
52 | B6 | 0.317
53 | B27 | 0.0429
54 | B28 | 0.0168
55 | B8 | 0.0571
56 | B11 | 0.162
57 | B14 | 0.451
58 | B17 | 0.12
59 | B29 | 0.0105
60 | B24 | 0.0284
